# Measured values: article PMC1277818, “Substrate specificity analysis of protein kinase complex Dbf2-Mob1 by peptide library and proteome array screening” (BMC Biochemistry, 2005)
# T1: FHHDbf2-H6Mob1TM9 (Saccharomyces cerevisiae, UniProt P22204+P40484)
# T1 construct: made in house; host or cells: Hi5 insect cells (baculovirus)
# T1 sequence (P22204 1-572): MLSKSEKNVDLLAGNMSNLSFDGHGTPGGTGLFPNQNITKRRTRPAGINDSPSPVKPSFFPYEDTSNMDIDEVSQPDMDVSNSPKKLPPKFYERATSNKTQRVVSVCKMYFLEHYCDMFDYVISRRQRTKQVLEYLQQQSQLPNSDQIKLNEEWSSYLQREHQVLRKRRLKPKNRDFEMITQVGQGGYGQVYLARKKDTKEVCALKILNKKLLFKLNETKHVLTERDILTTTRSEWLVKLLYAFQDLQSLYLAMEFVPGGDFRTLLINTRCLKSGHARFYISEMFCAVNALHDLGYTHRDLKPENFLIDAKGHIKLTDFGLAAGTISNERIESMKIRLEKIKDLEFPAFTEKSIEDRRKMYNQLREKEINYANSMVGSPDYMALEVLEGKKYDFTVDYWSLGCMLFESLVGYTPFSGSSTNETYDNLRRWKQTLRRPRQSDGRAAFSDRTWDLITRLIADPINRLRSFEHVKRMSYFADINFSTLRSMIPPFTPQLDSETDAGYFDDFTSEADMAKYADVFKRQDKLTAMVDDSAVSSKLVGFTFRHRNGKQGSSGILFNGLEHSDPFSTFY
# T1 sequence (P40484 1-314 partner): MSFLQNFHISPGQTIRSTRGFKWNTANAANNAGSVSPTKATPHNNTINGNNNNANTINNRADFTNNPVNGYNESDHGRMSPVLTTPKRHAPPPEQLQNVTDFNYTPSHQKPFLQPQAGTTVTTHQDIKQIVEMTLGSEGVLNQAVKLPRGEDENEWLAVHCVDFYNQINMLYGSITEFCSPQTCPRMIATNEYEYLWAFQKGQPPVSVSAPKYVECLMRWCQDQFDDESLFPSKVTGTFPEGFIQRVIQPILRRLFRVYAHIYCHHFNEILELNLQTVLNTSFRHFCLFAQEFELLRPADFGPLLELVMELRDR
# Biological target: T1, FHHDbf2-H6Mob1TM9
# Assay: Yeast proteome chip assay
# Assay type: biochemical
# Conditions: [γ-33P]ATP, chips in duplicate
# Procedure: The relatively low sequence complexity of the Dbf2 phosphorylation motif diminished the power of using genome-wide bioinformatics screens to identify putative substrates. Accordingly, we carried out a proteome array screen to identify putative yeast substrates. […] After taking into account the proteins phosphorylated in the negative controls, 67 proteins were determined to be putative Dbf2-Mob1 substrates (Table 3).
# Yeast proteome microarrays were prepared as previously described. Overexpressed GST-tagged yeast proteins were purified from ~4,400 yeast strains and spotted on slides. To determine the optimal amount of kinase to use for probing proteome chips, we performed trial assays as described (J. Ptacek et al., submitted). […] The full proteome array was probed with 4 μl ^FHHDbf2-^H6Mob1^TM9 in 200 μl of DKB supplemented with [γ-^33P]ATP. As a control, ^FHHDbf2(N305A)-^H6Mob1^TM9 was used to probe the proteome array. […] To control for autophosphorylated proteins, the proteome array was probed with 200 μl of DKB supplemented with [γ-^33P]ATP. Proteome chips were assayed in duplicate in each case. Data analysis was performed as described (J. Ptacek et al., submitted). Briefly, signals were analyzed by a computer algorithm designed to normalize background and identify signals as positive if 3 of 4 spots (each protein is spotted twice on each slide and each kinase or control was tested on 2 slides) were 2 standard deviations above background and the fourth spot was 1.5 standard deviations above background.
# [1] = Table 3, GST fusion proteins on proteome chip, computer analysis
# [2] = Table 4, the 25 proteins with highest signal relative to protein amount
Molecule,Slide Signal (after normalization) [1],Slide Signal (after normalization) [2]
"YDL070W: GST fusion yeast protein on proteome chip (protein, UniProt Q07442 1-638, looked up, GST fusion, GST fusion yeast protein on proteome chip) Bromodomain-containing factor …: MSRTNMDTRHAHSALLAAPQSATANSRSSNSSSESSSNKNNINVGVGDDSGNVSAVSIDDGPHFRDIFHYGHEENYKLASSGITNLNSSSHAHQTLSPISISNASTPESFPEHPLGLERETEPALEAEMEAEELPPHQSKYLLSSIKATKRLKDARPFLKPVDPIALNIPHYFNYVQTPMDLSLIETKLQGNVYHSVEQVTSDFKTMVDNCLNFNGPESSISSMAKRIQKYFEKKLSAMPPRVLPASALKKTSRNRKKNEDMDSPLVIRRSVSTTNDNIGESGNREGVSGGRPKRTIHPPKSKDLFDIYENSKPKSKTLQKKFRTCLKILKVLMSKKNSDINFPFLQPVDPIALNLPNYFDVVKNPMDLGTISNNLMNWKYKTIDQFVDDLNLVFYNCFQFNPEGNEVHSMGKKLKELFNFHWLENQDILNEIETDSDLEEDNYSSSYSSDDEYDDEDINENDITNPAIQYLEQKLKKMEVELQQLKRQELSKLSKERKRKHLGKTLLRRKAMKHSVDDLKKSITDKINELSDLEMNGMIRIIKNSLPADEILTSNEDEIEIDLDILDEATIARIYERYFEKKNNNNSKRKLSGNYSTAPTNKKKKTLKFLEKDEIINNNNYSDSEEDSSDSSDSDSD",0.6162,
"YIL135C: GST fusion yeast protein on proteome chip (protein, UniProt P40463 1-436, looked up, GST tag, GST fusion yeast protein on proteome chip) Protein VHS2: MDTSNHNQDHDSHVAAQRENDNNYMPPSPSMSESSMIFERNVEDPSYLYKTVSNNAANSLSRQSSRTSLFNHNNSSNRNFHNLSQRSSAVNLHLQPSRTNESIASYQTYNPDFVVQTPLDHRRTLENFVPPALDAGCSIVTDDTTGLDDVDMVYSRRPSTIGLDRALGRTRSLSSQSFDNETSPAHPRSPNDHGSRLLRFYSYADMLSDDNNNNVSNATSTSSTANPLRRPPMQGHYSFSSSLLNSPSHLPSPPSASASPPQHMNFTNPFIISRRYSNTTINNANGGTSAGSTTGAALSRSPSNQQYLLKQQRSPSGSARSRRNSNRPGSAANIMIGKPKSKFHMESSGSEGFSSEEEDNTMIERDKLNLKQKLQSQLAQPPSIANMVNDNHNNTNKHKNTINNNIKNSPAFTNSNPSSKSNSNSTITSMNPDTTK",1.116,1.116
"YKL140W: GST fusion yeast protein on proteome chip (protein, UniProt P34163 1-548, looked up, GST tag, GST fusion yeast protein on proteome chip) Sterol esterase TGL1: MYFPFLGRLSITDYIIVVLVYIESIISSVLKLIPQPMINLFEWLINFSTSSDDNTIEEKLRSAPTIHEMCAIFDISVEDHLVRTEDNYILTLHRIPPISKNRFNNKVVYLHHGLLMCSDVWCCNIERHKNLPFVLHDLGYDVWMGNNRGNKYSTAHLNKPPKSNKFWDFSIDEFAFFDIPNSIEFILDITKVDKVICIGFSQGSAQMFAAFSLSEKLNRKVSHFIAIAPAMTPKGLHNRIVDTLAKSSPGFMYLFFGRKIVLPSAVIWQRTLHPTLFNLCIDIANKILFNWKSFNILPRQKIASYAKLYSTTSVKSIVHWFQILRSQKFQMFEESDNMLNSLTRPYQIANFPTRTNIKIPILLIYGGIDSLVDIDVMKKNLPFNSVFDVKVDNYEHLDLIWGKDADTLVIAKVLRFIEFFNPGNVSVKTNQLLPSASLVEELPSTTWKTTHPTHGLSYRTHSADRSPLSVQADEADEVHNADNSRFLRRVFSTSAIDEDNENEHQDDTEDQIHKEQQRRLSAYLESSKDLRQLDANSSTTALDALNKE",0.6321,
"YDL019C: GST fusion yeast protein on proteome chip (protein, UniProt Q12451 2-1283, looked up, GST fusion, GST fusion yeast protein on proteome chip) Oxysterol-binding protein …: SREDLSIAEDLNQVSKPLLKVKLLEVLGQGDFKHLKALVDNEFQPKDDPSVQQVLNLILHYAVQVAPILLIKEIVAHWVDQVGDEKSSSKSDDGIHLDLNYQDENGNTPLHLAAAQSRSDVISFLLSQKSINDCVKNKAHQQPLDMCKDLNVAQMIQLKRDDYFLETVHSLRAAMNKRDFSKLDSIWKNPRNLNLLDINGIDPETGTTLLYEYSQKKDIEMCQWLLKHGAEATVKDGKGRSPLDLVKNIKLPAKPSNNVTPEIKLKNLLEKNLREQAIVHEDVASSKPPTYKGFLKKWTNFAHGYKLRWFILSGDGNLSYYKDQSHVDRPRGTLKVSTCRLHIDSSEKLNFELLGGITGTTRWRLKGNHPIETTRWVNAIQSAIRFAKDKEILNKKKAVPPSLALKNKSPALISHSKTQGSLPEASQYYQHTLHKEVIQPSSVSLYRRPSNNLSVVSSEIQLNDNLTESGKRFVSKMIENRLDGSKTPVGVHTGSALQRVRSSNTLKSNRSMQSGSGVASPIDKVPNGANLSQSNTTTGSTASLSDNNYIDNFEGDEANSDDEEEDLGINFDRDEEYIKAQYGPYKEKLDMYEQAISIELSSLIELIEQEEPSPEVWLTIKKSLINTSTIFGKLKDLTYKRDKRLVDMVSKQGDVNNVWVQSVKELEMELSNKTERLASIDKERRGLKKILHKKLLESHATAGNKESLENDKEQESDTTASTLGQIAKFISATKEEDEASDADEFYDAAELVDEVTELTEAHPEISTAAAPKHAPPPVPNETDNDSQYVQDEKSKIESNVEKTSQKFEKQNNLVTEDEPKTDQSLKNFKAEDKESQVKEKTKEIASSVIGEKTIVAVTTVQKRKEEYLLKEGSYLGYEDGIRKRLSMDKDDRPKISLWAVLKSMVGKDMTRMTLPVTFNEPTSLLQRVAEDLEYSELLDQAATFEDSTLRTLYVAAFTASSYASTTKRVAKPFNPLLGETFEYSRPDKQYRFFTEQVSHHPPISATWTESPRWDFWGESFVDTKFNGRSFNVKHLGLWHIKLRPNDNEKEELYTWKKPNNTVIGILIGNPQVDNHGEVNVVNHTTGDHCKLYFKARGWRSSGAYEITGEVYNKKKQKVWILGGHWNEAIFAKKVVKDGDLSLEKTRTAASAGNGPTDDGTKFLIWKANDRPEEPFNLTPFAITLNAPQPHLLPWLPPTDTRLRPDQRAMEDGRYDEAGDEKFRVEEKQRAARRKREENNLEYHPQWFVRDTHPITKAKYWRYTGKYWVKRRDHDLKDCGDIF",0.9962,0.9962
"YMR072W: GST fusion yeast protein on proteome chip (protein, UniProt Q02486 27-183, looked up, GST tag, GST fusion yeast protein on proteome chip) ARS-binding factor 2, …: KASKRTQLRNELIKQGPKRPTSAYFLYLQDHRSQFVKENPTLRPAEISKIAGEKWQNLEADIKEKYISERKKLYSEYQKAKKEFDEKLPPKKPAGPFIKYANEVRSQVFAQHPDKSQLDLMKIIGDKWQSLDQSIKDKYIQEYKKAIQEYNARYPLN",0.7585,
"YNR006W: GST fusion yeast protein on proteome chip (protein, UniProt P40343 1-622, looked up, GST fusion, GST fusion yeast protein on proteome chip) Vacuolar protein …: MSVSTPSELDALIEQATSESIPNGDLDLPIALEISDVLRSRRVNPKDSMRCIKKRILNTADNPNTQLSSWKLTNICVKNGGTPFIKEICSREFMDTMEHVILREDSNEELSELVKTILYELYVAFKNDSQLNYVAKVYDKLISRGIKFPEKLTLSNSPTAMFDSKTPADWIDSDACMICSKKFSLLNRKHHCRSCGGVFCQEHSSNSIPLPDLGIYEPVRVCDSCFEDYDLKRHDDSKKSKKHRHKRKKDRDYSTPEDEEELIRKAIELSLKESRNSASSEPIVPVVESKNEVKRQEIEEEEDPDLKAAIQESLREAEEAKLRSERQKASRQMQPQQPSPQPQPIHSVDLSDEEKDSIYMFASLVEKMKSRPLNEILEDSKLQNLAQRVFASKARLNYALNDKAQKYNTLIEMNGKISEIMNIYDRLLEQQLQSINLSQQYTLPQVPSDPYNYLTENVQNPAESYQTPPLQQLSSHQYKPQQDVSRQQSVKANSSPTTNIDHLKTIDVTPHAQQKPQSHVELAPSDPPYPKEEAEDEGTQAVQDEESSTQESRERPYPVETENGETSINKRPQGITRYDFPTVPARKFVQPESTVPLPASSSEIPIKEERPPSPQEELLIEL",1.1429,1.1429
"YDL002C: GST fusion yeast protein on proteome chip (protein, UniProt Q03435 2-203, looked up, GST fusion, GST fusion yeast protein on proteome chip) Non-histone protein 10: SVEEKKRRLEELKDQNVVLGLAIQRSRLSVKRLKLEYGVLLERLESRIELDPELNCEDPLPTLASFKQELLTKPFRKSKTKRHKVKERDPNMPKRPTNAYLLYCEMNKERIRQNGSLDVTRDLAEGWKNLNEQDRKPYYKLYSEDRERYQMEMEIYNKKISNIDADDDKEENEQKIKNNEEGSSTKVADSKGGEDGSLVSSN",0.8102,
